Source: US20210318322A1 (Janssen / Centocor, published 2021)
Like-named read-outs stand apart in the source and are kept apart here.

B1: VSTB112 (antibody, human IgG1, kappa)
heavy: not shown
light: DIQMTQSPSSLSASVGDRVTITCRASQSIDTRLNWYQQKPGKAPKLLIYSASSLQSGVPSRFSGSGSGTDFTLTISSLQPEDFATYYCQQSAYNPITFGQGTKVEIKRTVAAPSVFIFPPSDEQLKSGTASVVCLLNNFYPREAKVQWKVDNALQSGNSQESVTEQDSKDSTYSLSSTLTLSKADYEKHKVYACEVTHQGLSSPVTKSFNRGEC
notes: also called S2; INX Code 2
B2: VSTB174 (antibody, human IgG1, kappa)
heavy: not shown
light: DIQMTQSPSSLSASVGDRVTITCRASQSIDTRLNWYQQKPGKAPKLLIYSASSLQSGVPSRFSGSGSGTDFTLTISSLQPEDFATYYCQQSAYNPITFGQGTKVEIKRTVAAPSVFIFPPSDEQLKSGTASVVCLLNNFYPREAKVQWKVDNALQSGNSQESVTEQDSKDSTYSLSSTLTLSKADYEKHKVYACEVTHQGLSSPVTKSFNRGEC
B3: VSTB116 (antibody, human IgG1, kappa)
heavy: not shown
light: DIQMTQSPSSLSASVGDRVTITCRASQSINTNLNWYQQKPGKAPKLLIYAASSLQSGVPSRFSGSGSGTDFTLTISSLQPEDFATYYCQQARDTPITFGQGTKVEIKRTVAAPSVFIFPPSDEQLKSGTASVVCLLNNFYPREAKVQWKVDNALQSGNSQESVTEQDSKDSTYSLSSTLTLSKADYEKHKVYACEVTHQGLSSPVTKSFNRGEC
notes: also called S5; INX Code 5
B4: VSTB95 (antibody, human IgG1, kappa, V domains shown)
VH: EVQLVESGGGLVQPGGSLRLSCAASGFTFRNYGMSWVRQAPGKGLEWVASIISGGSYTYYPDSVKGRFTISRDNAKNSLYLQMNSLRAEDTAVYYCARIYDHDGDYYAMDYWGQGTTVTVSS
VL: DIVMTQSPLSLPVTPGEPASISCRSSQSIVHSNGNTYLEWYLQKPGQSPQLLIYKVSNRFSGVPDRFSGSGSGTDFTLKISRVEAEDVGVYYCFQGSHVPWTFGQGTKLEIKR
notes: also called S16; INX Code 16
B5: VSTB53 (antibody, human IgG1, kappa, V domains shown)
VH: QVQLVQSGAEVKKPGASVKVSCKASGYTFTHYTIHWVRQAPGQGLEWMGYIIPSSGYSEYNQKFKDRVTMTRDTSTSTVYMELSSLRSEDTAVYYCARGAYDDYYDYYAMDYWGQGTLVTVSS
VL: DIVMTQSPLSLPVTPGEPASISCRSSQTIVHSNGNTYLEWYLQKPGQSPQLLIYKVSNRFSGVPDRFSGSGSGTDFTLKISRVEAEDVGVYYCFQASHVPWTFGQGTKLEIKR
notes: also called S43; INX Code 43
B6: VSTB50 (antibody, human IgG1, kappa, V domains shown)
VH: QVQLVQSGSELKKPGASVKVSCKASGYTFTNYGLNWVRQAPGQGLEWMGWINPYTGEPTYADDFKGRFVFSLDTSVSTAYLQICSLKAEDTAVYYCAREGYGNYIFPYWGQGTLVTVSS
VL: DIVMTQTPLSLSVTPGQPASISCRASESVDTYANSLMHWYLQKPGQPPQLLIYRASNLESGVPDRFSGSGSGTDFTLKISRVEAEDVGVYYCQQTNEDPRTFGQGTKLEIKR
notes: also called S41; INX Code 41
B7: VSTB60 (antibody, human IgG1, kappa, V domains shown)
VH: QVQLVQSGSELKKPGASVKVSCKASGYTFTNYGMTWVRQAPGQGLEWMGWINTYTGESTYADDFKGRFVFSLDTSVSTAYLQICSLKAEDTAVYYCARDYYGIYVSAYWGQGTLVTVSS
VL: DIVMTQTPLSLSVTPGQPASISCRASESVDNYANSFMHWYLQKPGQSPQLLIYRASNLESGVPDRFSGSGSGTDFTLKISRVEAEDVGVYYCQQSHEDPYTFGQGTKLEIKR
notes: also called S47; INX Code 47

Tests used:
[1] = target: T1, cynomolgus VISTA extracellular domain (cynomolgus, UniProt A0A7N9IB00 33-194); experiment: SPR ProteOn
T1 construct: extracellular domain; also called cyno VISTA ECD; SB0361 (cyno (cynomolgus))
T1 sequence: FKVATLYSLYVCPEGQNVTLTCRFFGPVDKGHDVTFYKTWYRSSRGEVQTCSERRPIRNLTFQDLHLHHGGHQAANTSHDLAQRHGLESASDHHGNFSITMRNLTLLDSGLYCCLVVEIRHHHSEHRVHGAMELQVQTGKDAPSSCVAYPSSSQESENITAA

[2] = target: T1, cynomolgus VISTA extracellular domain; experiment: SPR ProteOn; remark: listed apart in the source
[3] = target: T2, human VISTA expressed on cells (human, UniProt Q9H7M9 33-295); experiment: cell-based or functional assay
T2 sequence: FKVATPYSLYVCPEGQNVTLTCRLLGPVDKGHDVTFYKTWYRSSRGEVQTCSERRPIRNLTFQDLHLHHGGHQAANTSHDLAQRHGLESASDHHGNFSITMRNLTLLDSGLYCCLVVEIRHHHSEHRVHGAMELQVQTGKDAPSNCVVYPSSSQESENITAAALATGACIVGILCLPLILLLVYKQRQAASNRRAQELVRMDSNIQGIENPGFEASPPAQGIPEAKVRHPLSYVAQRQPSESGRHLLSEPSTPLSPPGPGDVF

[4] = target: T3, human VISTA extracellular domain (human, UniProt Q9H7M9 33-194); experiment: SPR ProteOn
T3 construct: also called human VISTA ECD; SB0361 (human)

[5] = target: T2, human VISTA expressed on cells; experiment: cell-based or functional assay; remark: listed apart in the source
[6] = target: T2, human VISTA expressed on cells; experiment: cell-based or functional assay; remark: listed apart in the source

Row | Binder | Kd [1] | Kd [2] | IC50, CPM in the SEB assay [3] | IC50, IFN-gamma in the SEB assay [3] | Kd [4] | koff [4] | kon [4] | koff [1] | kon [1] | EC50 IFN-gamma production, MLR [5] | EC50 proliferation, MLR [5] | IC50, CPM in the MLR [6] | IC50, IFN-gamma in the MLR [6]
1 | B1 | 0.0866 nM |  |  |  |  |  |  |  |  |  |  |  | 
2 | B2 |  | 0.0866 nM |  |  |  |  |  |  |  |  |  |  | 
3 | B3 | 0.137 nM |  | -1.44 log10 of antibody concentration | -0.35 log10 of antibody concentration | 0.213 nM | 0.000267 s⁻¹ | 1.25e+06 M⁻¹ s⁻¹ | 0.000117 s⁻¹ | 851000 M⁻¹ s⁻¹ | 0.69 µg/mL | 0.17 µg/mL | -0.78 log10 of antibody concentration | -0.16 log10 of antibody concentration
4 | B4 | 0.192 nM |  | -1.12 log10 of antibody concentration | 0.05 log10 of antibody concentration | 0.126 nM | 6.99e-05 s⁻¹ | 554000 M⁻¹ s⁻¹ | 8.53e-05 s⁻¹ | 443000 M⁻¹ s⁻¹ | 1.67 µg/mL | 0.29 µg/mL | -0.54 log10 of antibody concentration | 0.22 log10 of antibody concentration
5 | B5 | 0.0528 nM |  | -1.06 log10 of antibody concentration | -1.05 log10 of antibody concentration | 0.0264 nM | 3.3e-05 s⁻¹ | 1.25e+06 M⁻¹ s⁻¹ | 6.22e-05 s⁻¹ | 1.18e+06 M⁻¹ s⁻¹ | 1.88 µg/mL | 0.47 µg/mL | -0.33 log10 of antibody concentration | 0.27 log10 of antibody concentration
6 | B6 | 0.31 nM |  | -0.74 log10 of antibody concentration | 1.69 log10 of antibody concentration | 0.632 nM | 0.000305 s⁻¹ | 482000 M⁻¹ s⁻¹ | 0.000219 s⁻¹ | 708000 M⁻¹ s⁻¹ | 1.14 µg/mL | 0.77 µg/mL | -0.12 log10 of antibody concentration | 0.06 log10 of antibody concentration
7 | B7 | 0.252 nM |  |  |  | 0.356 nM | 0.000183 s⁻¹ | 514000 M⁻¹ s⁻¹ | 0.000143 s⁻¹ | 569000 M⁻¹ s⁻¹ | 2.48 µg/mL | 1.04 µg/mL | 0.02 log10 of antibody concentration | 0.4 log10 of antibody concentration
